# From paper PMC12730105, “The Interaction Between PGD2 and G6PD6 Is Involved in Aromatic Amino Acid Synthesis” (Biology, 2025)
# T1: MBP-G6PD6 (pMAL-c5x) (Arabidopsis thaliana, UniProt Q9FJI5 1-515)
# T1 construct: glucose-6-phosphate dehydrogenase 6 (G6PD6), Arabidopsis thaliana, At5g40760, full-length ORF in pMAL-c5x; pMAL-c5x normally places MBP at the N-terminus; source: E. coli BL21 (DE3), purified (amylose resin)
# T1 sequence (looked up): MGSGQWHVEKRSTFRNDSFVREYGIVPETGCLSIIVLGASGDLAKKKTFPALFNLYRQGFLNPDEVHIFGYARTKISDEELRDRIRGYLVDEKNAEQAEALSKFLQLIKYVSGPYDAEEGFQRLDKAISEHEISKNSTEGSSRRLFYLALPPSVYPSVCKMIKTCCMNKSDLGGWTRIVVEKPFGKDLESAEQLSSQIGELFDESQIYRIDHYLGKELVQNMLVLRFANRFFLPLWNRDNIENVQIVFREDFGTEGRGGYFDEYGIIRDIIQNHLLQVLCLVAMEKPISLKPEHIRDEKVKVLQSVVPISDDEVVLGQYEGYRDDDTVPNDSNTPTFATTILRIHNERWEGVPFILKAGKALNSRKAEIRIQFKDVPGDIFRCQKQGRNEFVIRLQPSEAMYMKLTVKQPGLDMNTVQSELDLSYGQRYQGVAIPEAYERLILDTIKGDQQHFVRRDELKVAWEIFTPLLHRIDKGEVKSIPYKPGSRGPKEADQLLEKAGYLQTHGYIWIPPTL
# B1: PGD2-HIS (pET28a-PGD2) (enzyme, Arabidopsis thaliana, UniProt Q9FWA3 1-486, looked up)
# chain: MAVQPTRIGLAGLAVMGQNLALNIAEKGFPISVYNRTTSKVDETVERAKKEGNLPLYGFHDPESFVKSIQKPRVIIMLVKAGSPVDQTIKTLSAYLEKGDCIVDGGNEWYENTERREKAVAENGFLYLGMGVSGGEEGARNGPSMMPGGSYEAYKNIEDIVLKVAAQVRDSGPCVTYIGKGGSGNFVKMVHNGIEYGDMQLIAEAYDVLKSVGKLSNEELHSVFSDWNKGELESFLVEITADIFGIKDDKGDGHLVDKVLDKTGMKGTGKWTVQQAAELSVPAPTIESSLDARFLSGLKDERVQAAKVFKAGGFGDILTDQKVDKKQLVDDVRKALYASKICSYAQGMNLIRAKSIEKGWGLKLGELARIWKGGCIIRAIFLDRIKQAYDRNAELANLLVDPEFAKEIIERQSAWRRVVCLAINSGISTPGMSASLAYFDSYRRERLPANLVQAQRDYFGAHTYERTDVEGSFHTEWFKIARQSKI
# notes: Printed as PGD2-HIS in the methods and HIS-PGD2 in the results; also called HIS-PGD2; source: E. coli BL21 (DE3), purified (His60 Ni Superflow resin)
# Target: T1, MBP-G6PD6 (pMAL-c5x)
# Assay: pull-down; purified PGD2-HIS immobilised on Mag-Beads His-Tag resin (4 °C, 1 h), incubated with MBP-G6PD6 at 4 °C for 3 h, three washes, Western blot (the results speak of immobilised MBP-G6PD6)
# Conditions: both partners purified
binder,measurement,value
B1,binding result,binds
